# From the Human Domainome abundance scans (Beltran et al. 2025)
# ± gives the uncertainty stated by the source.
# B1: POU domain, class 4, transcription factor 1, residues 266 to 347; numbered along this chain, Q01851 (parent)
# chain: RELEAFAERFKQRRIKLGVTQADVGSALANLKIPGVGSLSQSTICRFESLTLSHNNMIALKPILQAWLEEAEGAQREKMNKP
# Variants of: B1
# Assay: abundance fitness (aPCA) (normalised: wild type 0, dead -1); higher = more abundant; growth selection in yeast, the domain comes from the species named
# Details: Homo sapiens
row,Variant,abundance fitness
1,RELEAFAERFKQRRIKLGVTQADVGSALANLKIPGVGSLSQSTICRFESLTLSHNNMIALKPILQAWLEEAEGAQREKINKP [M79I],0.008 ± 0.042
2,RELEAFAERFKQRRIKLGVTQADVGSALANLKIPGVGSLSQSTICRFESLTLSHNNMIALKPILQAWLEEAEGAQREKANKP [M79A],0.004 ± 0.027
3,RELEAFAERFKQRRIKLGVTQADVGSALANLKIPGVGSLSQSTICRFESLTLSHNNMIALKPILQAWLEEAEGAQREKSNKP [M79S],-0.024 ± 0.026
4,RELEAFAERFKQRRIKLGVTQADVGSALANLKIPGVGSLSQSTICRFESLTLSHNNMIALKPILQAWLEEAEGAQREKDNKP [M79D],-0.022 ± 0.041
5,RELEAFAERFKQRRIKLGVTQADVGSALANLKIPGVGSLSQSTICRFESLTLSHNNMIALKPILQAWLEEAEGAQREKVNKP [M79V],0.007 ± 0.024
6,RELEAFAERFKQRRIKLGVTQADVGSALANLKIPGVGSLSQSTICRFESLTLSHNNMIALKPILQAWLEEAEGAQREKLNKP [M79L],0.001 ± 0.024
7,RELEAFAERFKQRRIKLGVTQADVGSALANLKIPGVGSLSQSTICRFESLTLSHNNMIALKPILQAWLEEAEGAQREKFNKP [M79F],0.024 ± 0.04
8,RELEAFAERFKQRRIKLGVTQADVGSALANLKIPGVGSLSQSTICRFESLTLSHNNMIALKPILQAWLEEAEGAQREKNNKP [M79N],0.023 ± 0.043
9,RELEAFAERFKQRRIKLGVTQADVGSALANLKIPGVGSLSQSTICRFESLTLSHNNMIALKPILQAWLEEAEGAQREKYNKP [M79Y],-0.011 ± 0.052
10,RELEAFAERFKQRRIKLGVTQADVGSALANLKIPGVGSLSQSTICRFESLTLSHNNMIALKPILQAWLEEAEGAQREKWNKP [M79W],-0.015 ± 0.026
11,RELEAFAERFKQRRIKLGVTQADVGSALANLKIPGVGSLSQSTICRFESLTLSHNNMIALKPILQAWLEEAEGAQREKPNKP [M79P],0.029 ± 0.033
12,RELEAFAERFKQRRIKLGVTQADVGSALANLKIPGVGSLSQSTICRFESLTLSHNNMIALKPILQAWLEEAEGAQREKRNKP [M79R],-0.025 ± 0.021
13,RELEAFAERFKQRRIKLGVTQADVGSALANLKIPGVGSLSQSTICRFESLTLSHNNMIALKPILQAWLEEAEGAQREKGNKP [M79G],0.009 ± 0.021
14,RELEAFAERFKQRRIKLGVTQADVGSALANLKIPGVGSLSQSTICRFESLTLSHNNMIALKPILQAWLEEAEGAQREKTNKP [M79T],-0.021 ± 0.032
15,RELEAFAERFKQRRIKLGVTQADVGSALANLKIPGVGSLSQSTICRFESLTLSHNNMIALKPILQAWLEEAEGAQREKKNKP [M79K],0.039 ± 0.035
16,RELEAFAERFKQRRIKLGVTQADVGSALANLKIPGVGSLSQSTICRFESLTLSHNNMIALKPILQAWLEEAEGAQREKQNKP [M79Q],-0.03 ± 0.033
17,RELEAFAERFKQRRIKLGVTQADVGSALANLKIPGVGSLSQSTICRFESLTLSHNNMIALKPILQAWLEEAEGAQREKMAKP [N80A],0.117 ± 0.039

row,Variant,abundance fitness
1,RELEAFAERFKQRRIKLGVTQADVGSALANLKIPGVGSLSQSTICRFESLTLSHNNMIALKPILQAWLEEAEGAQREKMHKP [N80H],0.019 ± 0.066
2,RELEAFAERFKQRRIKLGVTQADVGSALANLKIPGVGSLSQSTICRFESLTLSHNNMIALKPILQAWLEEAEGAQREKMDKP [N80D],-0.007 ± 0.062
3,RELEAFAERFKQRRIKLGVTQADVGSALANLKIPGVGSLSQSTICRFESLTLSHNNMIALKPILQAWLEEAEGAQREKMCKP [N80C],0.064 ± 0.06
4,RELEAFAERFKQRRIKLGVTQADVGSALANLKIPGVGSLSQSTICRFESLTLSHNNMIALKPILQAWLEEAEGAQREKMFKP [N80F],-0.043 ± 0.065
5,RELEAFAERFKQRRIKLGVTQADVGSALANLKIPGVGSLSQSTICRFESLTLSHNNMIALKPILQAWLEEAEGAQREKMIKP [N80I],-0.121 ± 0.14
6,RELEAFAERFKQRRIKLGVTQADVGSALANLKIPGVGSLSQSTICRFESLTLSHNNMIALKPILQAWLEEAEGAQREKMLKP [N80L],-0.026 ± 0.039
7,RELEAFAERFKQRRIKLGVTQADVGSALANLKIPGVGSLSQSTICRFESLTLSHNNMIALKPILQAWLEEAEGAQREKMKKP [N80K],-0.001 ± 0.065
8,RELEAFAERFKQRRIKLGVTQADVGSALANLKIPGVGSLSQSTICRFESLTLSHNNMIALKPILQAWLEEAEGAQREKMGKP [N80G],-0.003 ± 0.032
9,RELEAFAERFKQRRIKLGVTQADVGSALANLKIPGVGSLSQSTICRFESLTLSHNNMIALKPILQAWLEEAEGAQREKMEKP [N80E],0.078 ± 0.053
10,RELEAFAERFKQRRIKLGVTQADVGSALANLKIPGVGSLSQSTICRFESLTLSHNNMIALKPILQAWLEEAEGAQRETMNKP [K78T],-0.273 ± 0.1
11,RELEAFAERFKQRRIKLGVTQADVGSALANLKIPGVGSLSQSTICRFESLTLSHNNMIALKPILQAWLEEAEGAQRESMNKP [K78S],-0.092 ± 0.059
12,RELEAFAERFKQRRIKLGVTQADVGSALANLKIPGVGSLSQSTICRFESLTLSHNNMIALKPILQAWLEEAEGAQRERMNKP [K78R],0.047 ± 0.051
13,RELEAFAERFKQRRIKLGVTQADVGSALANLKIPGVGSLSQSTICRFESLTLSHNNMIALKPILQAWLEEAEGAQREQMNKP [K78Q],-0.045 ± 0.12
14,RELEAFAERFKQRRIKLGVTQADVGSALANLKIPGVGSLSQSTICRFESLTLSHNNMIALKPILQAWLEEAEGAQREVMNKP [K78V],-0.019 ± 0.057
15,RELEAFAERFKQRRIKLGVTQADVGSALANLKIPGVGSLSQSTICRFESLTLSHNNMIALKPILQAWLEEAEGAQREWMNKP [K78W],0.007 ± 0.063
16,RELEAFAERFKQRRIKLGVTQADVGSALANLKIPGVGSLSQSTICRFESLTLSHNNMIALKPILQAWLEEAEGAQREPMNKP [K78P],-0.048 ± 0.12
17,RELEAFAERFKQRRIKLGVTQADVGSALANLKIPGVGSLSQSTICRFESLTLSHNNMIALKPILQAWLEEAEGAQREYMNKP [K78Y],-0.106 ± 0.23
